Results: the supplement of paper PMC5998384

Assays:
HeLa Kyoto [1] = experiment: solubility change mitosis vs G1/S (difference of NP-40 vs SDS log2 ratios) (log2 ratio difference); higher = more soluble in mitosis
HeLa Kyoto [2] = experiment: solubility in G1/S (NP-40 vs SDS abundance) (log2 ratio); higher = more soluble; conditions: cell cycle stage: G1/S
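For solubility change mitosis vs G1/S (difference of NP-40 vs SDS log2 ratios) in this document: synchronized HeLa Kyoto cells (double thymidine block for G1/S, nocodazole release for mitosis), protein amounts in NP-40 versus SDS lysates quantified by mass spectrometry, three biological replicates.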
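For solubility in G1/S (NP-40 vs SDS abundance) in this document: HeLa Kyoto cells arrested at G1/S by double thymidine block, proteins quantified by TMT10plex mass spectrometry in mild NP-40 versus SDS extracts, three biological replicates.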

Sequence | solubility change mitosis (log2) (HeLa Kyoto [1]) | solubility in G1/S (log2) (HeLa Kyoto [2])
MRRSRSSAAAKLRGQKRSGASGASAAPAASAAAALAPSATRTRRSASQAGSKSQAVEKPPSEKPRLRRSSPRAQEEGPGEPPPPELALLPPPPPPPPTPATPTSSASNLDLGEQRERWETFQKRQKLTSEGAAKLLLDTFEYQGLVKHTGGCHCGAVRFEVWASADLHIFDCNCSICKKKQNRHFIVPASRFKLLKGAEHITTYTFNTHKAQHTFCKRCGVQSFYTPRSNPGGFGIAPHCLDEGTVRSMVTEEFNGSDWEKAMKEHKTIKNMSKE [CENPV] | 0.822 | -2.01
MPTWGARPASPDRFAVSAEAENKVREQQPHVERIFSVGVSVLPKDCPDNPHIWLQLEGPKENASRAKEYLKGLCSPELQDEIHYPPKLHCIFLGAQGFFLDCLAWSTSAHLVPRAPGSLMISGLTEAFVMAQSRVEELAERLSWDFTPGPSSGASQCTGVLRDFSALLQSPGDAHREALLQLPLAVQEELLSLVQEASSGQGPGALASWEGRSSALLGAQCQGVRAPPSDGRESLDTGSMGPGDCRGARGDTYAVEKEGGKQGGPREMDWGWKELPGEEAWEREVALRPQSVGGGARESAPLKGKALGKEEIALGGGGFCVHREPPGAHGSCHRAAQSRGASLLQRLHNGNASPPRVPSPPPAPEPPWHCGDRGDCGDRGDVGDRGDKQQGMARGRGPQWKRGARGGNLVTGTQRFKEALQDPFTLCLANVPGQPDLRHIVIDGSNVAMVHGLQHYFSSRGIAIAVQYFWDRGHRDITVFVPQWRFSKDAKVRESHFLQKLYSLSLLSLTPSRVMDGKRISSYDDRFMVKLAEETDGIIVSNDQFRDLAEESEKWMAIIRERLLPFTFVGNLFMVPDDPLGRNGPTLDEFLKKPARTQGSSKAQHPSRGFAEHGKQQQGREEEKGSGGIRKTRETERLRRQLLEVFWGQDHKVDFILQREPYCRDINQLSEALLSLNF [KHNYN] | -0.219 | 0.384
MAGRGSLVSWRAFHGCDSAEELPRVSPRFLRAWHPPPVSARMPTRRWAPGTQCITKCEHTRPKPGELAFRKGDVVTILEACENKSWYRVKHHTSGQEGLLAAGALREREALSADPKLSLMPWFHGKISGQEAVQQLQPPEDGLFLVRESARHPGDYVLCVSFGRDVIHYRVLHRDGHLTIDEAVFFCNLMDMVEHYSKDKGAICTKLVRPKRKHGTKSAEEELARAGWLLNLQHLTLGAQIGEGEFGAVLQGEYLGQKVAVKNIKCDVTAQAFLDETAVMTKMQHENLVRLLGVILHQGLYIVMEHVSKGNLVNFLRTRGRALVNTAQLLQFSLHVAEGMEYLESKKLVHRDLAARNILVSEDLVAKVSDFGLAKAERKGLDSSRLPVKWTAPEALKHGKFTSKSDVWSFGVLLWEVFSYGRAPYPKMSLKEVSEAVEKGYRMEPPEGCPGPVHVLMSSCWEAEPARRPPFRKLAEKLARELRSAGAPASVSGQDADGSTSPRSQEP [MATK] | 0.257 | -0.238
MRRKGRCHRGSAARHPSSPCSVKHSPTRETLTYAQAQRMVEIEIEGRLHRISIFDPLEIILEDDLTAQEMSECNSNKENSERPPVCLRTKRHKNNRVKKKNEALPSAHGTPASASALPEPKVRIVEYSPPSAPRRPPVYYKFIEKSAEELDNEVEYDMDEEDYAWLEIVNEKRKGDCVPAVSQSMFEFLMDRFEKESHCENQKQGEQQSLIDEDAVCCICMDGECQNSNVILFCDMCNLAVHQECYGVPYIPEGQWLCRHCLQSRARPADCVLCPNKGGAFKKTDDDRWGHVVCALWIPEVGFANTVFIEPIDGVRNIPPARWKLTCYLCKQKGVGACIQCHKANCYTAFHVTCAQKAGLYMKMEPVKELTGGGTTFSVRKTAYCDVHTPPGCTRRPLNIYGDVEMKNGVCRKESSVKTVRSTSKVRKKAKKAKKALAEPCAVLPTVCAPYIPPQRLNRIANQVAIQRKKQFVERAHSYWLLKRLSRNGAPLLRRLQSSLQSQRSSQQRENDEEMKAAKEKLKYWQRLRHDLERARLLIELLRKREKLKREQVKVEQVAMELRLTPLTVLLRSVLDQLQDKDPARIFAQPVSLKEVPDYLDHIKHPMDFATMRKRLEAQGYKNLHEFEEDFDLIIDNCMKYNARDTVFYRAAVRLRDQGGVVLRQARREVDSIGLEEASGMHLPERPAAAPRRPFSWEDVDRLLDPANRAHLGLEEQLRELLDMLDLTCAMKSSGSRSKRAKLLKKEIALLRNKLSQQHSQPLPTGPGLEGFEEDGAALGPEAGEEVLPRLETLLQPRKRSRSTCGDSEVEEESPGKRLDAGLTNGFGGARSEQEPGGGLGRKATPRRRCASESSISSSNSPLCDSSFNAPKCGRGKPALVRRHTLEDRSELISCIENGNYAKAARIAAEVGQSSMWISTDAAASVLEPLKVVWAKCSGYPSYPALIIDPKMPRVPGHHNGVTIPAPPLDVLKIGEHMQTKSDEKLFLVLFFDNKRSWQWLPKSKMVPLGIDETIDKLKMMEGRNSSIRKAVRIAFDRAMNHLSRVHGEPTSDLSDID [BRD1] | 0.194 | -0.879
MEGRPPPEGRPPPRPRTGRAPRGRRRAVFAAVLHWSHITHLFENDRHFSHLSTLEREMAFRTEMGLYYSYFKTIVEAPSFLNGVWMIMNDKLTEYPLVINTLKRFNLYPEVILASWYRIYTKIMDLIGIQTKICWTVTRGEGLSPIESCEGLGDPACFYVAVIFILNGLMMALFFIYGTYLSGSRLGGLVTVLCFFFNHGECTRVMWTPPLRESFSYPFLVLQMLLVTHILRATKLYRGSLIALCISNVFFMLPWQFAQFVLLTQIASLFAVYVVGYIDICKLRKIIYIHMISLALCFVLMFGNSMLLTSYYASSLVIIWGILAMKPHFLKINVSELSLWVIQGCFWLFGTVILKYLTSKIFGIADDAHIGNLLTSKFFSYKDFDTLLYTCAAEFDFMEKETPLRYTKTLLLPVVLVVFVAIVRKIISDMWGVLAKQQTHVRKHQFDHGELVYHALQLLAYTALGILIMRLKLFLTPHMCVMASLICSRQLFGWLFCKVHPGAIVFAILAAMSIQGSANLQTQWNIVGEFSNLPQEELIEWIKYSTKPDAVFAGAMPTMASVKLSALRPIVNHPHYEDAGLRARTKIVYSMYSRKAAEEVKRELIKLKVNYYILEESWCVRRSKPGCSMPEIWDVEDPANAGKTPLCNLLVKDSKPHFTTVFQNSVYKVLEVVKE [DPY19L1] | 0.0231 | -0.264
MASSDLEQLCSHVNEKIGNIKKTLSLRNCGQEPTLKTVLNKIGDEIIVINELLNKLELEIQYQEQTNNSLKELCESLEEDYKDIEHLKENVPSHLPQVTVTQSCVKGSDLDPEEPIKVEEPEPVKKPPKEQRSIKEMPFITCDEFNGVPSYMKSRLTYNQINDVIKEINKAVISKYKILHQPKKSMNSVTRNLYHRFIDEETKDTKGRYFIVEADIKEFTTLKADKKFHVLLNILRHCRRLSEVRGGGLTRYVIT [SKA1] | -0.0548 | 0.713
MPVERMRMRPWLEEQINSNTIPGLKWLNKEKKIFQIPWMHAARHGWDVEKDAPLFRNWAIHTGKHQPGVDKPDPKTWKANFRCAMNSLPDIEEVKDKSIKKGNNAFRVYRMLPLSERPSKKGKKPKTEKEDKVKHIKQEPVESSLGLSNGVSDLSPEYAVLTSTIKNEVDSTVNIIVVGQSHLDSNIENQEIVTNPPDICQVVEVTTESDEQPVSMSELYPLQISPVSSYAESETTDSVPSDEESAEGRPHWRKRNIEGKQYLSNMGTRGSYLLPGMASFVTSNKPDLQVTIKEESNPVPYNSSWPPFQDLPLSSSMTPASSSSRPDRETRASVIKKTSDITQARVKSC [IRF2] | 0.0622 | 0.0934
MAAEEADVDIEGDVVAAAGAQPGSGENTASVLQKDHYLDSSWRTENGLIPWTLDNTISEENRAVIEKMLLEEEYYLSKKSQPEKVWLDQKEDDKKYMKSLQKTAKIMVHSPTKPASYSVKWTIEEKELFEQGLAKFGRRWTKISKLIGSRTVLQVKSYARQYFKNKVKCGLDKETPNQKTGHNLQVKNEDKGTKAWTPSCLRGRADPNLNAVKIEKLSDDEEVDITDEVDELSSQTPQKNSSSDLLLDFPNSKMHETNQGEFITSDSQEALFSKSSRGCLQNEKQDETLSSSEITLWTEKQSNGDKKSIELNDQKFNELIKNCNKHDGRGIIVDARQLPSPEPCEIQKNLNDNEMLFHSCQMVEESHEEEELKPPEQEIEIDRNIIQEEEKQAIPEFFEGRQAKTPERYLKIRNYILDQWEICKPKYLNKTSVRPGLKNCGDVNCIGRIHTYLELIGAINFGCEQAVYNRPQTVDKVRIRDRKDAVEAYQLAQRLQSMRTRRRRVRDPWGNWCDAKDLEGQTFEHLSAEELAKRREEEKGRPVKSLKVPRPTKSSFDPFQLIPCNFFSEEKQEPFQVKVASEALLIMDLHAHVSMAEVIGLLGGRYSEVDKVVEVCAAEPCNSLSTGLQCEMDPVSQTQASETLAVRGFSVIGWYHSHPAFDPNPSLRDIDTQAKYQSYFSRGGAKFIGMIVSPYNRNNPLPYSQITCLVISEEISPDGSYRLPYKFEVQQMLEEPQWGLVFEKTRWIIEKYRLSHSSVPMDKIFRRDSDLTCLQKLLECMRKTLSKVTNCFMAEEFLTEIENLFLSNYKSNQENGVTEENCTKELLM [MYSM1] | -0.109 | -0.108
MAAAATAAEGVPSRGPPGEVIHLNVGGKRFSTSRQTLTWIPDSFFSSLLSGRISTLKDETGAIFIDRDPTVFAPILNFLRTKELDPRGVHGSSLLHEAQFYGLTPLVRRLQLREELDRSSCGNVLFNGYLPPPVFPVKRRNRHSLVGPQQLGGRPAPVRRSNTMPPNLGNAGLLGRMLDEKTPPSPSGQPEEPGMVRLVCGHHNWIAVAYTQFLVCYRLKEASGWQLVFSSPRLDWPIERLALTARVHGGALGEHDKMVAAATGSEILLWALQAEGGGSEIGVFHLGVPVEALFFVGNQLIATSHTGRIGVWNAVTKHWQVQEVQPITSYDAAGSFLLLGCNNGSIYYVDVQKFPLRMKDNDLLVSELYRDPAEDGVTALSVYLTPKTSDSGNWIEIAYGTSSGGVRVIVQHPETVGSGPQLFQTFTVHRSPVTKIMLSEKHLISVCADNNHVRTWSVTRFRGMISTQPGSTPLASFKILALESADGHGGCSAGNDIGPYGERDDQQVFIQKVVPSASQLFVRLSSTGQRVCSVRSVDGSPTTAFTVLECEGSRRLGSRPRRYLLTGQANGSLAMWDLTTAMDGLGQAPAGGLTEQELMEQLEHCELAPPAPSAPSWGCLPSPSPRISLTSLHSASSNTSLSGHRGSPSPPQAEARRRGGGSFVERCQELVRSGPDLRRPPTPAPWPSSGLGTPLTPPKMKLNETSF [SHKBP1] | -0.00881 | -0.0414
MAGGRCGPQLTALLAAWIAAVAATAGPEEAALPPEQSRVQPMTASNWTLVMEGEWMLKFYAPWCPSCQQTDSEWEAFAKNGEILQISVGKVDVIQEPGLSGRFFVTTLPAFFHAKDGIFRRYRGPGIFEDLQNYILEKKWQSVEPLTGWKSPASLTMSGMAGLFSISGKIWHLHNYFTVTLGIPAWCSYVFFVIATLVFGLFMGLVLVVISECFYVPLPRHLSERSEQNRRSEEAHRAEQLQDAEEEKDDSNEEENKDSLVDDEEEKEDLGDEDEAEEEEEEDNLAAGVDEERSEANDQGPPGEDGVTREEVEPEEAEEGISEQPCPADTEVVEDSLRQRKSQHADKGL [TMX4] | -0.172 | 0.144
